Laboratory results as given in patent US20250289901A1 (CHONGQING GENRIX BIOPHARMACEUTICAL, published 2025).

B1: bispecific antibody CD3ExBCMA (bispecific antibody, human IgG1, kappa)
heavy 1: QVQLVESGGGVVQPGRSLRLSCAASGFKFSGYGMHWVRQAPGKGLEWVAVIWFDGSRKYYVDSVKGRFTISRDNSKNTLYLQMNSLRAEDTAVYYCARQMGYWHFGLWGRGTLVTVSSASTKGPSVFPLAPSSKSTSGGTAALGCLVKDYFPEPVTVSWNSGALTSGVHTFPAVLQSSGLYSLSSVVTVPSSSLGTQTYICNVNHKPSNTKVDKRVEPKSCDKTHTCPPCPAPEFEGGPSVFLFPPKPKDTLMISRTPEVTCVVVDVSHEDPEVKFNWYVDGVEVHNAKTKPREEQYNSTYRVVSVLTVLHQDWLNGKEYKCKVSNKALPASIEKTISKAKGQPREPQVYTLPPCREEMTKNQVSLWCLVKGFYPSDIAVEWESNGQPENNYKTTPPVLDSDGSFFLYSKLTVDKSRWQQGNVFSCSVMHEALHNHYTQKSLSLSPGK
heavy 2: QVQLVQSGAEVKKPGSSVKVSCKASGYTFTNYWMHWVRQAPGQGLEWMGATYRGHSDTYYNQKFKGRVTITADKSTSTAYMELSSLRSEDTAVYYCTRGAVYAGYDVLDYWGQGTTVTVSSASTKGPSVFPLAPSSKSTSGGTAALGCLVKDYFPEPVTVSWNSGALTSGVHTFPAVLQSSGLYSLSSVVTVPSSSLGTQTYICNVNHKPSNTKVDKRVEPKSCDKTHTCPPCPAPEFEGGPSVFLFPPKPKDTLMISRTPEVTCVVVDVSHEDPEVKFNWYVDGVEVHNAKTKPREEQYNSTYRVVSVLTVLHQDWLNGKEYKCKVSNKALPASIEKTISKAKGQPREPQVCTLPPSREEMTKNQVSLSCAVKGFYPSDIAVEWESNGQPENNYKTTPPVLDSDGSFFLVSKLTVDKSRWQQGNVFSCSVMHEALHNHYTQKSLSLSPGK
light: not shown
notes: It is a knob-into-hole IgG1 heterodimer with a common light chain; also called CD3E × BCMA; CD3 × BCMA
B2: anti-CD3E monoclonal antibody H10B7+L9B9 (antibody, human IgG1, kappa, V domains shown)
VH: QVQLVESGGGVVQPGRSLRLSCAASGFKFSGYGMHWVRQAPGKGLEWVAVIWFDGSRKYYVDSVKGRFTISRDNSKNTLYLQMNSLRAEDTAVYYCARQMGYWHFGLWGRGTLVTVSS
VL: DIQMTQSPSSLSASVGDRVTITCRASQSISNYLTWYQQKPGKAPKLLIYEASSRPSGVPSRFSGSGSGTDFTLTISSLQPEDFATYYCQQWSRLPVTFGQGTKVEIKR
B3: anti-BCMA monoclonal antibody H13F1+L9B9 (antibody, human IgG1, kappa, V domains shown)
VH: QVQLVQSGAEVKKPGSSVKVSCKASGYTFTNYWMHWVRQAPGQGLEWMGATYRGHSDTYYNQKFKGRVTITADKSTSTAYMELSSLRSEDTAVYYCTRGAVYAGYDVLDYWGQGTTVTVSS
VL: DIQMTQSPSSLSASVGDRVTITCRASQSISNYLTWYQQKPGKAPKLLIYEASSRPSGVPSRFSGSGSGTDFTLTISSLQPEDFATYYCQQWSRLPVTFGQGTKVEIKR
notes: also called mutant of C4 (IgG1 subtype)

Tests used:
[1] = molecular target: T1, BCMA on the surface of NCI-H929 human plasma cell leukemia cell (human, UniProt Q02223 1-184); assay: flow cytometry on NCI-H929 cells, goat anti-human IgG-FITC
T1 construct: whole, on cells; also called BCMA positive NCI-H929 cells; BCMA-positive tumor cells
T1 sequence (looked up): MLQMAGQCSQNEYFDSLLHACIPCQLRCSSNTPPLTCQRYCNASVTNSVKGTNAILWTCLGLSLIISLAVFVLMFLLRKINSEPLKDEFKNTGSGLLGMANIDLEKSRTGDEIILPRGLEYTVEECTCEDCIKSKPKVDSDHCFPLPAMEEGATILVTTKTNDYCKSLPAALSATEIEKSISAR
Method: NCI-H929 human plasma cell leukemia cells (Cell Resource Center, Institute of Basic Medicine, Chinese Academy of Medical Sciences) in logarithmic growth phase were harvested, centrifuged, and resuspended in PBS buffer containing 1% BSA to 2×10⁶ cells/mL, and plated at 100 μL/well in 96-well V bottom plates. […] Next, the cells were washed three times with 200 μL of PBS solution, and suspended in 100 μL of PBS solution. Thereafter, the FITC channel was detected by flow cytometer (ACEA, Novocyte).

[2] = molecular target: T2, CD3E on the surface of Jurkat human acute T lymphocyte leukemia cell (human, UniProt P07766 23-207); assay: flow cytometry on Jurkat cells, goat anti-human IgG-FITC
T2 construct: whole, on cells; also called CD3 positive Jurkat cells
Method: Jurkat human acute T-lymphocyte leukemia cells (Cell Resource Center, Institute of Basic Medicine, Chinese Academy of Medical Sciences) in the logarithmic growth phase were harvested, centrifuged, and resuspended in PBS buffer containing 1% BSA to 2×10⁶ cells/mL, and plated at 100 μL/well in 96-well V bottom plates. […] Next, the cells were washed three times with 200 μL of PBS solution, and suspended in 100 μL of PBS solution. Thereafter, the FITC channel was detected by flow cytometer (ACEA, Novocyte).

[3] = molecular target: T3, extracellular region of human BCMA with C-terminal His tag (human, UniProt Q02223 1-54); assay: bridging ELISA: CD3E-FcK/CD3D-FcH coated, antibody, then BCMA-His, detected with HRP anti-His
T3 construct: No linker between the extracellular region and the tag is stated; also called hBCMA-his; hBCMA-His
T3 sequence: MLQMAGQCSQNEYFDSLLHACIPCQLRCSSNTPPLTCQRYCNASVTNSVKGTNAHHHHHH
Method: A 96-well ELISA plate was coated with CD3E-FcK/CD3D-FcH antigen (3 μg/mL, 100 μL/well), and was coated overnight in a refrigerator at 4° C. […] The ELISA plate was washed with PBS-0.1% Tween 20, followed by addition of BCMA-His antigen (1 μg/mL, 100 μL/well) and incubation at 37° C. for 1 hour. The ELISA plate was washed with PBS-0.1% Tween 20, followed by addition of HRP mouse anti-his IgG (Beijing ComWin Biotech Co., Ltd., cw0285M) and incubation at 37° C. for 1 hour. The ELISA plate was washed with PBS-0.1% Tween 20, and OPD substrate color development solution was added. The color development was terminated with 1 M H2SO4 after 5-10 minutes.

T2 sequence (P07766 23-207): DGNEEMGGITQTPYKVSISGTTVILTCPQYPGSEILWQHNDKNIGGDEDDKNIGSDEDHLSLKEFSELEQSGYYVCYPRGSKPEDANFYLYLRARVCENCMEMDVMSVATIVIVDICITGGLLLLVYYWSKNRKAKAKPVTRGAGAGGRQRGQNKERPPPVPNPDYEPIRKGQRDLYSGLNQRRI

Binder	EC50 (read off the curve) [1]	EC50 (read off the curve) [2]	binding result [3]
B1	~8 nM	–	–
B2	–	~1 nM	no binding
B3	~8 nM	–	–
